Source: US20050256058A1 (GEORGIA TECH RESEARCH, published 2005)
Numbered stars: 1 amine (or outer) side, 2 acyl side, 3 side chain; on linkers, the order of the positions; unused ones are H or OH. Square brackets hold non-standard residues; d marks the D form. * marks the point of attachment. CH═CH‑CON(CH2Ph)2 = O=C(/C=C/*)N(Cc1ccccc1)Cc1ccccc1; AAsp = aza-Asp, O=C(N(CC(=O)[*:3])N[*:1])[*:2]; Cbz = O=C(OCc1ccccc1)*

T1: Caspase-3 (UniProt P42574 29-277)
T1 sequence (looked up): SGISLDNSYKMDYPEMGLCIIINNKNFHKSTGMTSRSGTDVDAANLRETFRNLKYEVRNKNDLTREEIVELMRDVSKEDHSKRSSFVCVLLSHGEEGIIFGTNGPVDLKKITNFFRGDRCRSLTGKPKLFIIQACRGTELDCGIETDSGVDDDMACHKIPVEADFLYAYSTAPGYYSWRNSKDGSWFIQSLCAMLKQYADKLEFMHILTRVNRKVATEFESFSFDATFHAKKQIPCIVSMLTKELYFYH

T2: Caspase-9 (UniProt P55211 1-416, limits assumed)
T2 sequence (looked up): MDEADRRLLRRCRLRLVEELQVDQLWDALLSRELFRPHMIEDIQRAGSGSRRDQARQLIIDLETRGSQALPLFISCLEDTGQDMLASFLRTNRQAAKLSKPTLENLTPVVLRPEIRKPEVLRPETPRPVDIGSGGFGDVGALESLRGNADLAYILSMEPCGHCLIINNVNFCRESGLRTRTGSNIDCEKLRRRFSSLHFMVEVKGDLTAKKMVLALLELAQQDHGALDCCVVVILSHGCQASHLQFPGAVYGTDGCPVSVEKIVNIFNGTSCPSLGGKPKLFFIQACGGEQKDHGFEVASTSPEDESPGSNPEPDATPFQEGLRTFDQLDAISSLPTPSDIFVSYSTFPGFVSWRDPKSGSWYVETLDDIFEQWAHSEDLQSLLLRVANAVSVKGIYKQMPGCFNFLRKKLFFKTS

T3: Caspase-10 (UniProt Q92851 220-521, limits assumed)
T3 sequence (looked up): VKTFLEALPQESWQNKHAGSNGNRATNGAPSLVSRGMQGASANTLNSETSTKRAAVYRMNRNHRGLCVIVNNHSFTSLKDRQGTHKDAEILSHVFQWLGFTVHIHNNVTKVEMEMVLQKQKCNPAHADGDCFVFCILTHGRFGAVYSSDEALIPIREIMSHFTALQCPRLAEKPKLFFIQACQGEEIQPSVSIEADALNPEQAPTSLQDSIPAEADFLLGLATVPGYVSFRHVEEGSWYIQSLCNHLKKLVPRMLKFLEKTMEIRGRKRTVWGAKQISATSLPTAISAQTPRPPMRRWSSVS

T4: Caspase-7 (UniProt P55210 24-303)
T4 sequence (looked up): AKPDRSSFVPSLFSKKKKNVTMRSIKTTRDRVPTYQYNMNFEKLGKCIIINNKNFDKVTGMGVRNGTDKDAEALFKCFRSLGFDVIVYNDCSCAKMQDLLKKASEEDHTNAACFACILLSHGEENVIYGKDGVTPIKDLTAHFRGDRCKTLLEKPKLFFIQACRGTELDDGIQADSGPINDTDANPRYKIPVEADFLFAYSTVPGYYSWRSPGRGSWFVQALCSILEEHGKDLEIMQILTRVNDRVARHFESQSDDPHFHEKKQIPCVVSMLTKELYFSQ

T5: Caspase-2 (UniProt P42575 170-452, limits assumed)
T5 sequence (looked up): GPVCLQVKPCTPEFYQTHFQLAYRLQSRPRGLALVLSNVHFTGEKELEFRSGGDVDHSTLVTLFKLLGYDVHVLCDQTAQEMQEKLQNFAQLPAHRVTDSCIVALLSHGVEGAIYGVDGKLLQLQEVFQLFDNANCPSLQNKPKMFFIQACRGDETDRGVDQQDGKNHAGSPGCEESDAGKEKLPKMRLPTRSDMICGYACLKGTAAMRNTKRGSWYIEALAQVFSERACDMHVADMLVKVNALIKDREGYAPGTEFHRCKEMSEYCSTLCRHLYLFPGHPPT

T6: Caspase-6 (UniProt P55212 24-293, limits assumed)
T6 sequence (looked up): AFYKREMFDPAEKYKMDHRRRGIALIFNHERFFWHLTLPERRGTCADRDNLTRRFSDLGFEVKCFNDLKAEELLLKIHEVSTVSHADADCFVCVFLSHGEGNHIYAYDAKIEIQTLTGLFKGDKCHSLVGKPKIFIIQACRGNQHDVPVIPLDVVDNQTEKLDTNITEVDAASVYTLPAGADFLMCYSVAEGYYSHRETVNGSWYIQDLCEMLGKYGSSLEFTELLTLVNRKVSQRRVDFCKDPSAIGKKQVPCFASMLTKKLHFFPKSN

B1: Cbz-Asp-Glu-Val-AAsp-CH═CH-CON(CH2Ph)2 (peptide)
peptide: Cbz-DEV[AAsp]-{CH═CH‑CON(CH2Ph)2}
SMILES: CC(C)[C@H](NC(=O)[C@H](CCC(=O)O)NC(=O)[C@H](CC(=O)O)NC(=O)OCc1ccccc1)C(=O)NN(CC(=O)O)C(=O)/C=C/C(=O)N(Cc1ccccc1)Cc1ccccc1
B2: Cbz-Leu-Glu-Thr-AAsp-CH═CH-CON(CH2Ph)2 (peptide)
peptide: Cbz-LET[AAsp]-{CH═CH‑CON(CH2Ph)2}
SMILES: CC(C)C[C@H](NC(=O)OCc1ccccc1)C(=O)N[C@@H](CCC(=O)O)C(=O)N[C@H](C(=O)NN(CC(=O)O)C(=O)/C=C/C(=O)N(Cc1ccccc1)Cc1ccccc1)[C@@H](C)O

Biological target: T1, Caspase-3
Test: cell-based or functional assay

Row | fold more potent inhibition than of caspase-6 [fold] | fold more potent inhibition than of caspase-8 [fold] | Binder
1 | 588 | 348 | B1

Biological target: T2, Caspase-9
Test: cell-based or functional assay

Row | k2 [M⁻¹ s⁻¹] | Binder
2 | 1100 | B2
3 | 655 | Cbz-DEV[AAsp]-{CH═CH‑CONHCH2CH2Ph} [Cbz-Asp-Glu-Val-AAsp-CH═CH-CONHCH2CH2Ph]
4 | 5030 | Cbz-LET[AAsp]-{CH═CH‑CON(CH3)CH2‑1‑Napth} [Cbz-Leu-Glu-Thr-AAsp-CH═CH-CON(CH3)CH2-1-Napth]
5 | 450 | B1
6 | 1660 | Cbz-LET[AAsp]-{CH═CH‑CO‑tetrahydroquinoline} [Cbz-Leu-Glu-Thr-AAsp-CH═CH-CON-tetrahydroquinoline]

Biological target: T3, Caspase-10
Test: cell-based or functional assay

Row | k2 [M⁻¹ s⁻¹] | Binder
7 | 8080 | B2
8 | 31400 | Cbz-DEV[AAsp]-{CH═CH‑CONHCH2CH2Ph} [Cbz-Asp-Glu-Val-AAsp-CH═CH-CONHCH2CH2Ph]
9 | 13600 | Cbz-LET[AAsp]-{CH═CH‑CON(CH3)CH2‑1‑Napth} [Cbz-Leu-Glu-Thr-AAsp-CH═CH-CON(CH3)CH2-1-Napth]
10 | 6300 | B1
11 | 9000 | Cbz-LET[AAsp]-{CH═CH‑CO‑tetrahydroquinoline} [Cbz-Leu-Glu-Thr-AAsp-CH═CH-CON-tetrahydroquinoline]

Biological target: T4, Caspase-7
Test: cell-based or functional assay

Row | k2 [M⁻¹ s⁻¹] | Binder
12 | 760 | B2
13 | 267000 | Cbz-DEV[AAsp]-{CH═CH‑CONHCH2CH2Ph} [Cbz-Asp-Glu-Val-AAsp-CH═CH-CONHCH2CH2Ph]
14 | 1100 | Cbz-LET[AAsp]-{CH═CH‑CON(CH3)CH2‑1‑Napth} [Cbz-Leu-Glu-Thr-AAsp-CH═CH-CON(CH3)CH2-1-Napth]
15 | 359000 | B1
16 | 540 | Cbz-LET[AAsp]-{CH═CH‑CO‑tetrahydroquinoline} [Cbz-Leu-Glu-Thr-AAsp-CH═CH-CON-tetrahydroquinoline]

Biological target: T1, Caspase-3
Test: cell-based or functional assay
Remark: another data set of the same source

Row | k2 [M⁻¹ s⁻¹] | Binder
17 | 8630 | B2
18 | 1.95e+06 | Cbz-DEV[AAsp]-{CH═CH‑CONHCH2CH2Ph} [Cbz-Asp-Glu-Val-AAsp-CH═CH-CONHCH2CH2Ph]
19 | 11200 | Cbz-LET[AAsp]-{CH═CH‑CON(CH3)CH2‑1‑Napth} [Cbz-Leu-Glu-Thr-AAsp-CH═CH-CON(CH3)CH2-1-Napth]
20 | 3e+06 | B1
21 | 12100 | Cbz-LET[AAsp]-{CH═CH‑CO‑tetrahydroquinoline} [Cbz-Leu-Glu-Thr-AAsp-CH═CH-CON-tetrahydroquinoline]

Biological target: T5, Caspase-2
Test: cell-based or functional assay

Row | k2 [M⁻¹ s⁻¹] | Binder
22 | 110 | B2
23 | 120 | Cbz-DEV[AAsp]-{CH═CH‑CONHCH2CH2Ph} [Cbz-Asp-Glu-Val-AAsp-CH═CH-CONHCH2CH2Ph]
24 | 290 | Cbz-LET[AAsp]-{CH═CH‑CON(CH3)CH2‑1‑Napth} [Cbz-Leu-Glu-Thr-AAsp-CH═CH-CON(CH3)CH2-1-Napth]
25 | 110 | B1
26 | 92 | Cbz-LET[AAsp]-{CH═CH‑CO‑tetrahydroquinoline} [Cbz-Leu-Glu-Thr-AAsp-CH═CH-CON-tetrahydroquinoline]

Biological target: Caspase-8 (UniProt Q14790 217-479)
Sequence (Q14790 217-479 limits assumed): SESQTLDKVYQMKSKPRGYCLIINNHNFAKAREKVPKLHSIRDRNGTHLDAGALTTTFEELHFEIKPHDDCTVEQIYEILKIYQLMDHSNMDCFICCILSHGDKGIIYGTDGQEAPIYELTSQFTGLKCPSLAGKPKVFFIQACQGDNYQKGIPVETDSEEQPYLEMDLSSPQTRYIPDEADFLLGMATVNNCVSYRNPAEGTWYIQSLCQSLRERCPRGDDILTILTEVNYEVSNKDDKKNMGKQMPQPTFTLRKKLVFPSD
Test: cell-based or functional assay

Row | k2 [M⁻¹ s⁻¹] | Binder
27 | 129000 | B2
28 | 129000 | Cbz-DEV[AAsp]-{CH═CH‑CONHCH2CH2Ph} [Cbz-Asp-Glu-Val-AAsp-CH═CH-CONHCH2CH2Ph]
29 | 179000 | Cbz-LET[AAsp]-{CH═CH‑CON(CH3)CH2‑1‑Napth} [Cbz-Leu-Glu-Thr-AAsp-CH═CH-CON(CH3)CH2-1-Napth]
30 | 8600 | B1
31 | 216000 | Cbz-LET[AAsp]-{CH═CH‑CO‑tetrahydroquinoline} [Cbz-Leu-Glu-Thr-AAsp-CH═CH-CON-tetrahydroquinoline]

Biological target: T6, Caspase-6
Test: cell-based or functional assay

Row | k2 [M⁻¹ s⁻¹] | Binder
32 | 14100 | B2
33 | 3470 | Cbz-DEV[AAsp]-{CH═CH‑CONHCH2CH2Ph} [Cbz-Asp-Glu-Val-AAsp-CH═CH-CONHCH2CH2Ph]
34 | 21700 | Cbz-LET[AAsp]-{CH═CH‑CON(CH3)CH2‑1‑Napth} [Cbz-Leu-Glu-Thr-AAsp-CH═CH-CON(CH3)CH2-1-Napth]
35 | 5100 | B1
36 | 13000 | Cbz-LET[AAsp]-{CH═CH‑CO‑tetrahydroquinoline} [Cbz-Leu-Glu-Thr-AAsp-CH═CH-CON-tetrahydroquinoline]
